# Results from publication PMC3981819, “Signaling Properties and Pharmacological Analysis of Two Sulfakinin Receptors from the Red Flour Beetle, Tribolium castaneum” (PLoS ONE, 2014).
# Square brackets hold non-standard residues; d marks the D form. Ends that are not written are not given here. sY = N[C@@H](Cc1ccc(OS(=O)(=O)O)cc1)C(=O)O; pGlu = O=C1CC[C@@H](C(=O)O)N1
# Legend:
# Trica-SKR1 = assay: Aequorin-luminescence assay, CHO-WTA11 cells (Gα16) transfected with Trica-SKR1; type: cell-based, Tribolium castaneum; conditions: peptide at 1 μM, aequorin bioluminescence, relative to sTrica-SK(5–13) at 1 μM = 100%, at least three biological repeats, each in duplicate
# Experimental: (§1) General pharmacological studies were performed in Chinese Hamster Ovary (CHO) WTA11 cells, stably coexpressing apoaequorin, a zeocin resistance gene and the promiscuous Gα16, which couples most agonist-induced GPCRs to the phospholipase C and Ca^2+ pathway irrespective of their natural signaling cascade. CHO-PAM28 cells stably expressing apoaequorin and a puromycin resistance gene but not Gα16 and HEK293T cells (Invitrogen) were used to determine possible effects on Ca^2+ and/or cAMP second messenger systems, respectively. All cell lines were cultured in Dulbecco’s Modified Eagles Medium nutrient mixture F12-Ham (DMEM/F12; Invitrogen) supplemented with 1% penicillin/streptomycin (10000 units/ml penicillin and 10 mg/ml streptomycin in 0.9% NaCl; Invitrogen) to prevent bacterial contamination of gram-positive and gram-negative bacteria. In CHO-WTA11 culture medium 250 μg/ml zeocin (Invitrogen) was added as a selection marker, while CHO-PAM28 culture medium was supplemented with 5 μg/ml puromycin to select cells stably expressing apoaequorin. All cell culture media were supplemented with 10% fetal bovine serum (inactivated at […]; Sigma-Aldrich).
# (§2) Cells were cultured in vitro as a monolayer at 37°C with a constant supply of 5% CO2 and were subcultivated twice a week. Transfections of cells were performed in T75 flasks at 60–80% confluency. Transfection reagent for CHO cells was prepared by combining 3.75 ml Opti-MEM I (Invitrogen), 7.5 μg plasmid DNA and 18.75 μl of Plus Reagent (Invitrogen). After gently mixing and 5 min incubation at room temperature 45 μl of Lipofectamine LTX was added to the mixture. This transfection medium was incubated for 30 min at room temperature and added dropwise to the cells, supplemented with 3 ml of fresh culture medium. HEK 293T cells were cotransfected with a receptor construct (6 μg) and CRE-luciferase reporter construct (3 μg), consisting of the open reading frame of the luciferase gene, downstream of a multimerized cAMP-response-element (CRE) and promoter. After transfection, cells were grown overnight before an additional 20 ml of culture medium was supplemented. Cells were again incubated overnight for a final growth phase before luminescence screens were performed.
# (§3) The aequorin luminescence assay was used to measure Ca^2+ signaling in CHO cell lines. Cells were detached using phosphate buffered saline (PBS) containing 0.2% EDTA and collected in 10 ml of DMEM/F-12 (without phenol red, with L-glutamine and 10 mM HEPES; Gibco). The viable cells were quantified using a NucleoCounter NC-100 (Chemometic). Cells were pelleted by 4 min centrifugation at 800 rpm at room temperature and resuspended in DMEM/BSA (DMEM/F-12 without phenol red, with L-glutamine and 10 mM HEPES, 0.1% bovine serum albumin) at a concentration of 5×10^6 cells/ml. Cells were then shielded from light and Coelenterazine H (Invitrogen) was added at a final concentration of 5 μM. Cells were gently shaken at room temperature for 4 h under dark conditions, allowing the aequorin holoenzyme to be reconstituted. After a 10-fold dilution in DMEM/BSA, cells were incubated another 30 min under the same conditions. Pharmacological ligands were dissolved in DMEM/BSA and 50 μl of ligand was added to wells of a 96-well plate. Wells containing 50 μl of DMEM/BSA were used as a negative control, while wells containing 1 μM of ATP served as positive control. Incubated cells were added to the wells of the 96-well plate and light emission was measured for 30 s using a Mithras LB940 (Berthold Technologies). After 30 s Triton X-100 (0.2% in DMEM/BSA) was added, lysing the cells and thus serving as an internal reference. Light emission was measured for an additional 8 s after Triton X-100 was introduced in the wells. Light emission from each well was calculated relative to the total response (ligand+Triton X-100) using the output file of Mikrowin2000 software (Mikrotek). Further analysis was done in Graphpad Prism 5.
# Trica-SKR2 = assay: Aequorin-luminescence assay, CHO-WTA11 cells (Gα16) transfected with Trica-SKR2; type: cell-based, Tribolium castaneum; conditions: peptide at 1 μM, aequorin bioluminescence, relative to sTrica-SK(5–13) at 1 μM = 100%, at least three biological repeats, each in duplicate
# Experimental: as §1, §2, §3
# [1] = biological target: Tribolium castaneum sulfakinin receptor 1 (T. castaneum)
# [2] = biological target: Tribolium castaneum sulfakinin receptor 2 (T. castaneum)
"aequorin bioluminescence in CHO-WTA11 cells transfected with the receptor, peptide at 1 μM, % of the response to 1 μM sTrica-SK(5–13) [1] [%]","aequorin bioluminescence in CHO-WTA11 cells transfected with the receptor, peptide at 1 μM, % of the response to 1 μM sTrica-SK(5–13) [2] [%]",Molecule,% Trica-SKR1 (relative activation) (Trica-SKR1) [%],% Trica-SKR2 (relative activation) (Trica-SKR2) [%]
8.2,15.6,FDDYGHMRA-NH2 [2003[φ1]wp-2],–,–
10.1,12.1,FDDAGHMRF-NH2 [2008[φ1]wp-2],–,–
40.8,32.6,D[sY]RPLQF-NH2 (N-terminus assumed; SMILES CC(C)C[C@H](NC(=O)[C@@H]1CCCN1C(=O)[C@H](CCCNC(=N)N)NC(=O)[C@H](Cc1ccc(OS(=O)(=O)O)cc1)NC(=O)[C@@H](N)CC(=O)O)C(=O)N[C@@H](CCC(N)=O)C(=O)N[C@@H](Cc1ccccc1)C(N)=O) [1678A[φ1]wp-4],–,–
6.2,13.4,PVD[sY]DRPIMAF-NH2 (N-terminus assumed; SMILES CC[C@H](C)[C@H](NC(=O)[C@@H]1CCCN1C(=O)[C@H](CCCNC(=N)N)NC(=O)[C@H](CC(=O)O)NC(=O)[C@H](Cc1ccc(OS(=O)(=O)O)cc1)NC(=O)[C@H](CC(=O)O)NC(=O)[C@@H](NC(=O)[C@@H]1CCCN1)C(C)C)C(=O)N[C@@H](CCSC)C(=O)N[C@@H](C)C(=O)N[C@@H](Cc1ccccc1)C(N)=O) [1569[φ2]wp-4],–,–
5.1,11.1,FDDYGHARF-NH2 [2005[φ1]wp-3],–,–
28.5,19.9,DG[sY]RPLQF-NH2 (N-terminus assumed; SMILES CC(C)C[C@H](NC(=O)[C@@H]1CCCN1C(=O)[C@H](CCCNC(=N)N)NC(=O)[C@H](Cc1ccc(OS(=O)(=O)O)cc1)NC(=O)CNC(=O)[C@@H](N)CC(=O)O)C(=O)N[C@@H](CCC(N)=O)C(=O)N[C@@H](Cc1ccccc1)C(N)=O) [1678B[φ1]wp-6],–,–
16.4,11.2,SPVDYDRPIMAF-NH2 [1432-2[φ]wp-6],–,–
23.6,33.7,SPVD[sY]DRPIMAF-NH2 (N-terminus assumed; SMILES CC[C@H](C)[C@H](NC(=O)[C@@H]1CCCN1C(=O)[C@H](CCCNC(=N)N)NC(=O)[C@H](CC(=O)O)NC(=O)[C@H](Cc1ccc(OS(=O)(=O)O)cc1)NC(=O)[C@H](CC(=O)O)NC(=O)[C@@H](NC(=O)[C@@H]1CCCN1C(=O)[C@@H](N)CO)C(C)C)C(=O)N[C@@H](CCSC)C(=O)N[C@@H](C)C(=O)N[C@@H](Cc1ccccc1)C(N)=O) [1567[φ1]wp-5],–,–
25.8,19.7,FDDYGHMR-NH2 (ends and bridges not checked) [2076[φ1]wp-2],–,–
43.4,33.4,HMRF-NH2 [2052[φ1]wp-3],–,–
13.3,44.6,GHMRF-NH2 [2053[φ1]wp-4],–,–

# Further lines, the molecule ahead of its results:
Molecule,"aequorin bioluminescence in CHO-WTA11 cells transfected with the receptor, peptide at 1 μM, % of the response to 1 μM sTrica-SK(5–13) [1] [%]","aequorin bioluminescence in CHO-WTA11 cells transfected with the receptor, peptide at 1 μM, % of the response to 1 μM sTrica-SK(5–13) [2] [%]",% Trica-SKR1 (relative activation) (Trica-SKR1) [%],% Trica-SKR2 (relative activation) (Trica-SKR2) [%]
"FDDYAHMRFa [2007[φ1]wp-1, alanine scan analog of nsTrica-SK, glycine replaced]",–,–,30.6,25.6
DYGHMRF-NH2 (ends and bridges not checked) [2010[φ1]wp-1],7.6,8.6,–,–
DDYGHMRF-NH2 (ends and bridges not checked) [2009[φ1]wp-1],27.2,17.1,–,–
FDDYGHMRF-NH2 [nonsulfated Trica-SK(5–13)],29.9,23.5,–,–
FDDYGHMAF-NH2 [2004[φ1]wp-1],5.9,7.3,–,–
FDDYAHMRF-NH2 (ends and bridges not checked) [2007[φ1]wp-1],30.6,25.6,–,–
YGHMRF-NH2 (ends and bridges not checked) [2011[φ1]wp-1],26.3,21.2,–,–
[pGlu]LASDDYGHMRF-NH2 (SMILES CSCC[C@H](NC(=O)[C@H](Cc1c[nH]cn1)NC(=O)CNC(=O)[C@H](Cc1ccc(O)cc1)NC(=O)[C@H](CC(=O)O)NC(=O)[C@H](CC(=O)O)NC(=O)[C@H](CO)NC(=O)[C@H](C)NC(=O)[C@H](CC(C)C)NC(=O)[C@@H]1CCC(=O)N1)C(=O)N[C@@H](CCCNC(=N)N)C(=O)N[C@@H](Cc1ccccc1)C(N)=O) [nsLocmi-SK],22.2,18.2,–,–
FDDYGAMRF-NH2 [2006[φ1]wp-1],2.3,3.5,–,–
